Experimental data taken from patent US20230106715A1 (BIOSION, published 2023).
Where a chain is given by its changes, count along the chain named.

T1: cynomolgus monkey Siglec15-his protein (cynomolgus monkey)
T1 construct: In house made; also called Cynomolgus Siglec15-his; cynomolgus Siglec15
T1 chain: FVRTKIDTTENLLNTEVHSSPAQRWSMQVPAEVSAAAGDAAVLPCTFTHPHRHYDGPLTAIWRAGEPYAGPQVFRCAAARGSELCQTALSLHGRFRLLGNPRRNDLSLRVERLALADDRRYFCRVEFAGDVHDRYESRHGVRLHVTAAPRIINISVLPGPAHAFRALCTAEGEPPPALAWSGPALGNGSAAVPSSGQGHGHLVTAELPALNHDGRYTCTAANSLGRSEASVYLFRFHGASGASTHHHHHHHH

T2: human Siglec15 on human-siglec15-2D3-1E1 cells (human, UniProt Q6ZMC9 20-328)
T2 construct: whole, on cells; Transfected HEK-293 cells; also called cell surface human Siglec15
T2 sequence (looked up): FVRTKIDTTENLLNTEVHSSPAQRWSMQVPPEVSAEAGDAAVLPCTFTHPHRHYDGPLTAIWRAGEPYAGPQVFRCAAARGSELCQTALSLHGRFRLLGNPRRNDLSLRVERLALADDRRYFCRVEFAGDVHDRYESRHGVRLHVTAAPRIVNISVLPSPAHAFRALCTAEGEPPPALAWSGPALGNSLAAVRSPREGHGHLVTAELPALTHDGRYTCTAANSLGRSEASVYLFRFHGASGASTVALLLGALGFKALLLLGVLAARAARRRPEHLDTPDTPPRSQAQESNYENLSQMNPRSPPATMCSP

T3: human Siglec15-mouse Fc protein (human)
T3 construct: In house made
T3 chain: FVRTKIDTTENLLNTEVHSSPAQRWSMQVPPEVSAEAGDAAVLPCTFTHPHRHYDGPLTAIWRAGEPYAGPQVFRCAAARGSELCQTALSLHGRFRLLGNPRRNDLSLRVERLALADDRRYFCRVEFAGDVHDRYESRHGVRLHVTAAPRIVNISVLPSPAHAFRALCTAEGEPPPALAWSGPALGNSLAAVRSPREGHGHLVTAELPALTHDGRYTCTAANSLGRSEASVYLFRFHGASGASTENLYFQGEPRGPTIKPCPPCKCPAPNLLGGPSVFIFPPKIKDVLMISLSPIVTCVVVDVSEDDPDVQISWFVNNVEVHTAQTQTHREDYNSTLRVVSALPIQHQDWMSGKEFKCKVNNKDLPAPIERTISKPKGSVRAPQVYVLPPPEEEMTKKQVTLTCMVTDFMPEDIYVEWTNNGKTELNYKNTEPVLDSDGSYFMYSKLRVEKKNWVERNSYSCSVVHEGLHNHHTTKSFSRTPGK

B1: anti-Siglec15 benchmark (ch5G12) (antibody, human IgG1, kappa, V domains shown)
VH: QVQLQQPGAELVKPGASVKMSCKASGYTFTSYWITWVIQRPGQGLEWIGDIYCGSDTMHYNEKFKNKATLTVDTSSSTAYMQLSSLTSEDSAVYYCARWWDYGSSYDYFDYWGQGTTLTVSS
VL: DIKMTQSPSSMYASLGERVTITCKASQDINSYLSWFQQKPGKSPKTLIYRANRLVDGVPSRFSGSGSGQDYSLTISSLEYEDMGIYYCLQYDEFPYTFGGGTKLEIKR
notes: ch5G12 (US 20190202912A1); also called BM; Siglec15-ch5G9
B2: A2A5C7E8 (antibody, V domains shown)
VH: EVQLVQSGAEVKKPGESLRISCKGSGYSFTTYWISWVRQMPGKGLEWMGLIDPSDSYTNYSPSFQGHVTISTDKSISTAYLQWSSLKASDTAMYYCARGGYYGSEEDYWGQGTLVTVSS
VL: EIVLTQSPGTLSLSPGERATLSCRASQSVSSSRLAWFQQKSGQAPRLLIFDASSRATGIPDRFSGSGSGTDFTLTISRLEPEDFAVYYCQQYGSSPRTFGQGTKVEFK
notes: Fully human antibody from transgenic mouse hybridoma; also called A2A5C7E8-1
B3: A2A5C7E8-2 (antibody, human IgG1, kappa, V domains shown)
VH: B2 VH with D55E
VL: EIVLTQSPGTLSLSPGERATLSCRASQSVSSSRLAWFQQKSGQAPRLLIFDASSRATGIPDRFSGSGSGTDFTLTISRLEPEDFAVYYCQQYGSSPRTFGQGTKVEFKR
notes: Variant of A2A5C7E8 modified in VH CDR2 (X1 = E)
B4: A2A5C7E8-3 (antibody, human IgG1, kappa, V domains shown)
VH: B2 VH with Q65K
VL: B3 VL
notes: Variant of A2A5C7E8 modified in VH CDR2 (X2 = K)
B5: A1E10G7H9 (antibody, V domains shown)
VH: QVQLQESGPGLVKPSGTLSLTCAVSGGSISSSNWWHWVRQPPGKGLEWIGEIYHSGNTNYKPSLKSRVTISVDKSKNQFSLKLSSVTAADTAVYYCARDEGNGWSNAFDIWGQGTMVTVSS
VL: ENVLTQSPGTLSLSPGERVTLSCRASQSVSSSYLAWYQQKPGQAPRFLIYGASGGATGIPDRFSGSGSGTDFTLTISRLEPEDFAVYYCQQYGSSPITFGQGTRLEIK
notes: Fully human antibody from transgenic mouse hybridoma

Molecular target: T1, cynomolgus monkey Siglec15-his protein
Experiment: indirect ELISA on coated cynomolgus Siglec15-his
Description: The anti-Siglec15 antibodies' cross-reactions to cynomolgus or mouse Siglec15 proteins were measured. Briefly, 96-well micro plates were coated with 100 μl of 2 μg/ml cynomolgus Siglec15-his protein (in house made with SEQ ID NO: 21), or 2 μg/ml mouse Siglec15-his protein (in house made with SEQ ID NO: 22) in carbonate/bicarbonate buffer (pH 9.6) for 2 hours at 37° C. ELISA plates were washed once with wash buffer (PBS+0.05% v/v Tween-20, PBST) and then blocked with 200 μl/well blocking buffer (5% w/v non-fatty milk in PBST) overnight at 4° C. Plates were washed 4 times and incubated with 100 μl serially diluted anti-Siglec15 antibodies of the disclosure or controls (starting at 66.7 nM, 5-fold serial dilution in PBST with 2.5% w/v non-fatty milk) for 40 minutes at 37° C. ELISA plates were washed 4 times again and incubated with Peroxidase AffiniPure Goat Anti-Human IgG, F(ab)₂ fragment specific (1:5000 dilution in PBST buffer, Jackson Immunoresearch, Cat #109-035-097, 100 μl/well) for 40 minutes at 37° C. After a final wash, plates were incubated with 100 μl/well TMB (Innoreagents, Cat #TMB-S-002). The reaction was stopped 4 minutes later at room temperature with 50 μl 1M H₂SO₄, and the absorbance of each well was read on a microplate reader using dual wavelength mode with 450 nm for TMB and 630 nm as the reference wavelength, then the OD (450-630) values were plotted against antibody concentration. Data was analyzed using Graphpad Prism software and EC₅₀ values were reported.

Row | Binder | EC50 [pM]
1 | B1 | 313
2 | B2 | 136
3 | B3 | 150
4 | B4 | 146

molecular target: T2, human Siglec15 on …; experiment: cell based binding FACS on human-siglec15-2D3-1E1 cells
Description: The binding activities of the anti-Siglec15 antibodies to cell surface Siglec15 were tested by flow cytometry (FACS), using in-house prepared human-siglec15-2D3-1E1 cells expressing human Siglec15 (amino acid residues Met1-Pro328 of uniprot #Q6ZMC9) on cell membranes. The human-siglec15-2D3-1E1 cells were prepared by transfecting HEK-293 cells (ATCC #CRL-1573) with pCMV-T-P plasmids inserted with human Siglec15 coding sequence between EcoRI and XbaI sites, following the instruction of lipofectamine 3000 transfection reagent (Thermo Fisher). The human-siglec15-2D3-1E1 cells were harvested from cell culture flasks, washed twice and re-suspended in phosphate buffered saline (PBS) containing 2% v/v Fetal Bovine Serum (FACS buffer). 2×10⁵ cells per well in 96 well-plates were incubated in 100 μL serially diluted anti-Siglec15 antibodies or controls (starting at 66.67 nM, 5-fold serial dilution) in FACS buffer for 40 minutes on ice. […] Following a 40-minute incubation at 4° C. in dark, cells were washed three times and re-suspended in FACS buffer. Fluorescence was measured using a Becton Dickinson FACS Canto II-HTS equipment. Data was analyzed using Graphpad Prism software and EC₅₀ values were reported.

Row | Binder | EC50 [pM]
5 | B1 | 877
6 | B2 | 1170
7 | B3 | 1470
8 | B4 | 1080

Molecular target: T3, human Siglec15-mouse Fc protein
Experiment: cell based blocking FACS: human Siglec15-mouse Fc in solution, blocked ligand human LRRC4C on LRRC4C-3F12-1B9 cells
Description: The activities of the anti-Siglec15 antibodies to block binding of Siglec15 protein to cell surface LRRC4C were evaluated by Flow Cytometry (FACS), using in house made LRRC4C-3F12-1B9 cells. Briefly, HEK-293 cells (ATCC #CRL-1573) were transfected with pCMV-T-P plasmid constructs with the nucleotide sequence encoding human LRRC4C (amino acid residues Met1-Ile640 of uniprot #Q9HCJ2) inserted between EcoRI and XbaI, following the instruction of lipofectamine 3000 transfection reagent (Thermo Fisher). A stable cell named LRRC4C-3F12-1B9 was chosen for subsequent cell based ligand-blocking assay.
Briefly, the anti-Siglec15 antibodies of the disclosure or controls were diluted with human Siglec15-mouse Fc protein (prepared in-house with SEQ ID NO: 26, 8 μg/ml […] in FACS buffer), starting at 66.67 nM with a 5-fold serial dilution, and incubated at room temperature for 40 minutes. Then, LRRC4C-3F12-1B9 cells were harvested from cell culture flasks, washed twice and re-suspended in PBS containing 2% v/v Fetal Bovine Serum (FACS buffer). Then, 1×10⁵ cells per well in 96 well-plates were incubated in 100 μL of the antibody/Siglec15-mouse Fc mixtures for 40 minutes at 4° C. […] Cells were washed twice and re-suspended in FACS buffer. Fluorescence was measured using a Becton Dickinson FACS Canto II-HTS equipment. Data was analyzed using Graphpad Prism software and IC₅₀ values were reported.

Row | Binder | IC50 [pM]
9 | B1 | 586
10 | B5 | 3780
11 | B2 | 2070
